# Test results from US20080118529A1 (published 2008).
# “And” between values parts separate entries of the source, which are not always exact repeats. Identical values can stand only once.
# B1: Tissue-type plasminogen activator (tPA, Actilyse, Boehringer-Ingelheim) (enzyme, human, UniProt P00750 36-562, looked up)
# chain: SYQVICRDEKTQMIYQQHQSWLRPVLRSNRVEYCWCNSGRAQCHSVPVKSCSEPRCFNGGTCQQALYFSDFVCQCPEGFAGKCCEIDTRATCYEDQGISYRGTWSTAESGAECTNWNSSALAQKPYSGRRPDAIRLGLGNHNYCRNPDRDSKPWCYVFKAGKYSSEFCSTPACSEGNSDCYFGNGSAYRGTHSLTESGASCLPWNSMILIGKVYTAQNPSAQALGLGKHNYCRNPDGDAKPWCHVLKNRRLTWEYCDVPSCSTCGLRQYSQPQFRIKGGLFADIASHPWQAAIFAKHRRSPGERFLCGGILISSCWILSAAHCFQERFPPHHLTVILGRTYRVVPGEEEQKFEVEKYIVHKEFDDDTYDNDIALLQLKSDSSRCAQESSVVRTVCLPPADLQLPDWTECELSGYGKHEALSPFYSERLKEAHVRLYPSSRCTSQHLLNRTVTDNMLCAGDTRSGGPQANLHDACQGDSGGPLVCLNDGRMTLVGIISWGLGCGQKDVPGVYTKVTNYLDWIRDNMRP
# notes: also called full-length tPA; recombinant human tPA
# B2: recombinant human β2-glycoprotein I (made in insect cells) (other, UniProt P02749 20-345, looked up)
# chain: GRTCPKPDDLPFSTVVPLKTFYEPGEEITYSCKPGYVSRGGMRKFICPLTGLWPINTLKCTPRVCPFAGILENGAVRYTTFEYPNTISFSCNTGFYLNGADSAKCTEEGKWSPELPVCAPIICPPPSIPTFATLRVYKPSAGNNSLYRDTAVFECLPQHAMFGNDTITCTTHGNWTKLPECREVKCPFPSRPDNGFVNYPAKPTLYYKDKATFGCHDGYSLDGPEEIECTKLGNWSAMPSCKASCKVPVKKATVVYQGERVKIQEKFKNGMLHGDKVSFFCKNKEKKCSYTEDAQCIDGTIEVPKCFKEHSSLAFWKTDASDVKPC
# notes: also called recombinant β2GPI; rec. β2GPI
# Tests used:
# albumin (ICN, 160069) = target: T1, albumin (ICN, 160069) (bovine, UniProt P02769 25-607); experiment: ELISA; protein incubated with DXS500k or buffer immobilized, overlaid with tPA in 10 mM εACA
# T1 construct: also called bovine serum albumin (ICN, #160069, fraction V)
# T1 sequence (P02769 25-607 limits assumed): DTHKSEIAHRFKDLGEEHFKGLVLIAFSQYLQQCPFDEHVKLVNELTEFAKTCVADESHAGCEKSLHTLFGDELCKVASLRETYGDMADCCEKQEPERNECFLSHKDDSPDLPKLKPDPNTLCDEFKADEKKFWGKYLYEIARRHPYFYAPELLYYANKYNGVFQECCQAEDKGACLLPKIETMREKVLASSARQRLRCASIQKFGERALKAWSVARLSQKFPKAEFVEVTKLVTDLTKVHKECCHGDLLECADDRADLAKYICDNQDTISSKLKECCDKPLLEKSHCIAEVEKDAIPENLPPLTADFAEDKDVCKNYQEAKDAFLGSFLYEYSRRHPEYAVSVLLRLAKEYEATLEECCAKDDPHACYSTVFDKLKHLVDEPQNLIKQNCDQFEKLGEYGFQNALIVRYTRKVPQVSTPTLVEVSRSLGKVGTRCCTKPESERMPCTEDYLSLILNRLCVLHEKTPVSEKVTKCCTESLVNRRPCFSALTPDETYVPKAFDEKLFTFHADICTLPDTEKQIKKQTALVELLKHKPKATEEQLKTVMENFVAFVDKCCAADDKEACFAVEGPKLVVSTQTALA
# [1] = target: T2, human factor XII from plasma (Calbiochem, #233490) (human, UniProt P00748 20-615); experiment: ELISA; factor XII incubated with DXS500k or buffer immobilized, overlaid with tPA in 10 mM εACA
# T2 construct: also called FXII
# T2 sequence (looked up): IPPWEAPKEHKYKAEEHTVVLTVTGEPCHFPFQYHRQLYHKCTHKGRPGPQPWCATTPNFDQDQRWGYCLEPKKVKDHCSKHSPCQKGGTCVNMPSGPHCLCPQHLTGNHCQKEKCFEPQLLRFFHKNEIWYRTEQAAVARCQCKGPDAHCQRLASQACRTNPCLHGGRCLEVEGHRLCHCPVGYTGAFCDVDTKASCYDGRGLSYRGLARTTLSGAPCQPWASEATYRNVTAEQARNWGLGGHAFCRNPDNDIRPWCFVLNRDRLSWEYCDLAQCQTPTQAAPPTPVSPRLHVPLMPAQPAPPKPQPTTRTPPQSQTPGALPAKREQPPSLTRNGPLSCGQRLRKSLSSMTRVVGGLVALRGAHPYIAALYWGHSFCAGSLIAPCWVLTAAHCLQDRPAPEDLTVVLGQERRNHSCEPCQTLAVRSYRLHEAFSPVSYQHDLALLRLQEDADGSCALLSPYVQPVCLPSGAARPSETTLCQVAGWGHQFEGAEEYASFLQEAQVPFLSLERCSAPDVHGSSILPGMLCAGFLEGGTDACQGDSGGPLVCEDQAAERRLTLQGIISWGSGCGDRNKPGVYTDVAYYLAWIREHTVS
# [2] = target: B1; experiment: ELISA: tPA coated, concentration series of β2GPI, detection with monoclonal antibody 2B2
# [3] = target: T2, human factor XII from plasma …; experiment: ELISA: factor XII coated, concentration series of β2GPI, detection with monoclonal antibody 2B2
Binder,"factor of increase in tPA binding (protein exposed to DXS500k against protein in buffer only) (albumin (ICN, 160069)) [fold]",binding result [1],Kd [2],Kd [3]
B1,1.3,binds,,
B2,,,2.3 µg/mL and 51 nM,0.9 µg/mL and 20 nM
